Reference: US20210238310A1

Experiments:
[1] = biological target: FcγRIIIa, on Jurkat effector cells (UniProt P08637); experiment: cell-based or functional assay
[2] = biological target: human FcγRIIa-H variant (Histidine at amino acid 131), on Jurkat effector cells (human) (UniProt P12318); experiment: cell-based or functional assay
Chain of human FcγRIIa-H variant (Histidine at amino acid 131), on Jurkat effector cells (human) (P12318 34-317, change not shown): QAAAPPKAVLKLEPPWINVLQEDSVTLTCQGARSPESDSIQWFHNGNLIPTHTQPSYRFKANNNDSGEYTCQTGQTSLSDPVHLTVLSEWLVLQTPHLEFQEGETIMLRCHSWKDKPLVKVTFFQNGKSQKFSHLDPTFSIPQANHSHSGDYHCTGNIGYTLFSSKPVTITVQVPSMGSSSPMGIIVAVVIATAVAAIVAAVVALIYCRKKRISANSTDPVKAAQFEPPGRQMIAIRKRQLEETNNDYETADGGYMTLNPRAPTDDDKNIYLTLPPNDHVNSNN

Chain of FcγRIIIa, on Jurkat effector cells (P08637 17-254 limits assumed): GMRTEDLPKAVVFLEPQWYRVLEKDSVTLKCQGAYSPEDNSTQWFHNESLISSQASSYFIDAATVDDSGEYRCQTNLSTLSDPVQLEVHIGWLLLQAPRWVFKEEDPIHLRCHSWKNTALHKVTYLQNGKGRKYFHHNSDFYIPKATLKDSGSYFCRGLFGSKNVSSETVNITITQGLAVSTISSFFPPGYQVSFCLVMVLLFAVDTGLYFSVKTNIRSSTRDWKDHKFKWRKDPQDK

| EC50 (nM), Mean; FcγRIIIa signaling in an ADCC reporter assay (luciferase, HEK-PD-L1 target cells) [1] [nM] | EC50 (nM), Mean; FcγRIIIa signaling in an ADCC reporter assay (luciferase, Raji target cells) [1] [nM] | EC50 (nM), Mean; FcγRIIa signaling in an ADCP reporter assay (luciferase, Raji target cells) [2] [nM] | Substance |
| --- | --- | --- | --- |
| 0.049 | – | – | avelumab monoclonal antibody, fucosylated |
| – | 0.08 | 7.1 | obinutuzumab monoclonal antibody, fucosylated |
